Data as given in article PMC3259199.

How the values were obtained:
[1] = biological target: MD145 virus protease (MD145pro) (MD145 virus (norovirus GII/4))
[2] = biological target: Norwalk virus protease (NVpro) (Norwalk virus (norovirus GI/1)) (UniProt Q83883)
UniProt Q83883, sequence (Q83883 1101-1281): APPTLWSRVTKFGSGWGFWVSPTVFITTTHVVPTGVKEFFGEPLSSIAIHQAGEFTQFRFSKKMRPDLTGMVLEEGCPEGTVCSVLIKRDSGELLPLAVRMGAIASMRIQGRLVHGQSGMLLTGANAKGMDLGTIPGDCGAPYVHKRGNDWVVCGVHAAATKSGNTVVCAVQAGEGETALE

In the case of edans-EPDFHLQGPEDLAK-dabcyl [edans-…-dabcyl], the Km of cleavage of the fluorogenic substrate (FRET protease assay) [1] is reported as 545 µM and the Km of cleavage of the fluorogenic substrate (FRET protease assay) [2] is reported as 790 µM.

edans-DFHLQGP-dabcyl [edans-DFHLQGP-dabcyl] was tested, and the Km of cleavage of the fluorogenic substrate (FRET protease assay) [1] was 160 µM and the Km of cleavage of the fluorogenic substrate (FRET protease assay) [2] was 272 µM.
